Legend:
SK-BR-3 cells = test: Flow cytometry binding; assay type: cell-based, human; settings: 31, 156 and 78 ng/ml; compared with 1D11
Method: (§1) Cells were detached from tissue culture flasks by accutase (Gibco, Paisley, UK), pelleted by centrifugation, and resuspended in ice cold DPBS (Gibco, Paisley, UK). Viable cells were counted by trypan blue exclusion using a haemocytometer. Cell densities were adjusted to 5×10^6 cells/mL in DPBS. 100 μL of the cell suspension (5×10^5 cells) was added to 96-well V-bottomed plates and placed on ice. Then, the cells were incubated with Live/Dead fixable violet stain (ThermoFisher Scientific, Loughborough, UK) for 20 minutes on ice. Following a wash with flow cytometry buffer (eBiosciences, Hatfield, UK), the cells were incubated on ice for 30 minutes in 100 μL flow cytometry buffer alone (unstained control cells) or supplemented with AF647-labelled anti-B7H4 antibodies (e.g. E02-GL or 1D11) or isotype R347 at a concentration ranging from 10 µg/ml to 78 ng/ml. […] FlowJo cytometry analysis software (Treestar, Ashland, OR, USA) was used to quantify antibody binding to cells as follows. Live, single cells were gated based on forwards scatter, side scatter, and Live/Dead violet fluorescence intensity and the AF647 geometric mean fluorescence intensity (MFI) was determined. […]

[1] = test system: hB7-H4 expressing HT29 cells; test: Flow cytometry binding; assay type: cell-based, human; settings: 31, 156 and 78 ng/ml; compared with 1D11
Method: as §1

[2] = test system: live cells (B7-H4 on membrane); test: Internalisation kinetics in live cells (AF647 label); assay type: cell-based; settings: AF647 conjugate; co-visualisation with Lamp1-AF488
Method: E02-GL conjugated to fluorescence marker AF647 was used to treat live cells. At 0 mins following treatment, clusters of fluorescence were noted on the cell membranes (indicative of binding to B7-H4 present on the membrane).

OVCAR4 = test: E02-GL MESF on cell line; assay type: cell-based, human
human B7-H4 antigen = molecular target: T1, human B7-H4 antigen (Homo sapiens, UniProt Q7Z7D3); test: SPR, antibody capture method; assay type: binding
T1 sequence (Q7Z7D3 25-282): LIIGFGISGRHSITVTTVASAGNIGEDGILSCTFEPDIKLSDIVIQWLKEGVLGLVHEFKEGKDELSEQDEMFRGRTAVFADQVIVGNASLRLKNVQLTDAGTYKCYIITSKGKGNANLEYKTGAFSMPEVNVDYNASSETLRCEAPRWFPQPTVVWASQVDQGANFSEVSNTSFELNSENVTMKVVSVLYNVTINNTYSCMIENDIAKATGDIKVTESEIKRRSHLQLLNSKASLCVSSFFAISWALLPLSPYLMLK
Method: To assess whether conjugation of the topoisomerase 1 linker-warhead affected binding properties of the E02-INT antibody, the binding affinity of E02-INT and E02-GL-SG3932 were measured using a DELFIA-ELISA method and an SPR method. […] The kinetic rate constants (kon and koff) and equilibrium dissociation constants (KD) of E02-INT and E02-GL-SG3932 for human B7-H4 antigen was also determined by SPR, using an antibody capture method.

[3] = test system: HT29-huB7-H4 Clone 4 and HT29-huB7-H4 Clone 26; test: Flow cytometry binding; assay type: cell-based, human
From the text: (§2) Flow cytometry was used to measure binding of antibody E02-INT and E02-GL-SG3932 to the human breast cancer cell lines MX-1 and MDA-MB-468, and to engineered HT29 colon cancer cells stably expressing human B7-H4.

MDA-MB-468 cells = test: Flow cytometry binding; assay type: cell-based, human; settings: endogenously-expressed B7-H4
From the text: as §2

MX-1 cells = test: Flow cytometry binding; assay type: cell-based, human; settings: endogenously-expressed B7-H4
From the text: as §2

[4] = test system: HT29-huB7-H4 Clone 26 cells; test: Confocal colocalization with LAMP1 and EEA1; assay type: cell-based, human; settings: 24 hours, 5 μg/mL
From the text: Confocal microscopy was used to determine intracellular trafficking of E02-INT by measuring co-localization with the early endosomal marker, Early Endosome Antigen 1 (EEA1) and the lysosomal marker, lysosomal-associated membrane protein 1 (LAMP1).

B1: E02-GL: germlined ZY0EQD-E02, VH SEQ ID NO: 45, VL SEQ ID NO: 34; antibody intermediate of E02-GL-SG3932 (antibody, V domains shown)
VH: QVQLQQWGAGLLKPSETLSLACTVYGGSFSGYYWNWIRQPPGKGLEWIGEINHSGSTSYNPSLKSRVTISVDTSKNQFSLKLSSVTAADTAVYYCARVLYNWNVDSWGQGTLVTVSS
VL: DIQMTQSPSSLSASVGDRVTITCRASQDIRNDVGWYQQKPGKAPKRLIYAASRLQSGVPSRFSGSGSGTEFTLTISSLQPEDFATYYCLQHNSYPRTFGQGTKVEIK
**Q.** Which results are given for B1?
**A.** binding to B7-H4 expressed on cancer cells (SK-BR-3 cells): superior binding; binding to B7-H4 expressed on cancer cells [1]: superior binding; internalisation of bound antibody [2]: internalised by endocytosis; E02-GL MESF (OVCAR4): 261,997 MESF; Ka (human B7-H4 antigen): 93800 M⁻¹ s⁻¹; Kd (human B7-H4 antigen): 31.1 nM; Kd (s^−1) (human B7-H4 antigen): 0.00292 s⁻¹; Rmax (RU) (human B7-H4 antigen): 56.8 RU; cellular binding [3]: bound similarly; cellular binding (MDA-MB-468 cells): bound; cellular binding (MX-1 cells): bound; intracellular trafficking after internalization [4]: trafficked to the lysosomal compartment

Reference: patent US20240239894A1, “THERAPEUTIC BINDING MOLECULES” (MedImmune Limited, priority 2020, published 2024)
